How the values were obtained:
[1] = molecular target: TGF-β present in IFN-β-treated mouse 2D2-FIG splenocyte cultures (endogenous) (mouse); assay: cell-based or functional assay
[2] = molecular target: recombinant TGF-β1 (rat TGFβ1 sequence expressed in HEK cells, heat-activated) (rat) (UniProt P17246); assay: cell-based or functional assay
Chain of UniProt P17246 (P17246 279-390 limits assumed): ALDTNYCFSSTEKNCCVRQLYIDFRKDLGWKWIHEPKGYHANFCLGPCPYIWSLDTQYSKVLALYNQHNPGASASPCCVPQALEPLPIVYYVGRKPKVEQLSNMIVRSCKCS

inhibition of IFN-β-induced FOXP3+ Treg induction (GFP) in MOG35-55-stimulated 2D2-FIG splenocytes, 7 days [1]: 1 µg/mL | inhibition of TGF-β-induced FOXP3+ Treg induction (GFP) in MOG35-55-stimulated 2D2-FIG splenocytes, 7 days [2]: 1 µg/mL
B1: 1D11.16.8 anti-mouse-TGF-β1/2/3 mouse IgG1 mAb (antibody, from another filing, V domains shown)
VH: QVQLQQSGPELVRPGASVKLSCKASGYIFITYWMNWVKQRPGQGLEWIGQIFPASGSTNYNEMFEGKATLTVDTSSSTAYMQLSSLTSEDSAVYYCARGDGNYALDAMDYWGQGTSVTVSS
VL: DIVLTQSPASLAVSLGQRATISCRASESVDSYGNSFMHWYQQKSGQPPKLLIYLASNLESGVPARFSGSGSRTDFTLTIDPVEADDAATYYCQQNNEDPLTFGAGTKLEIK

— patent US10940200
